Patent US20080241125A1 (Dana-Farber, published 2008)
No end group written: not given here.

Target: T1, purified IKKγ (human, UniProt Q9Y6K9 1-419, limits assumed)
T1 construct: also called NEMO
Assay: GST pull-down of purified IKKγ with GST-MUC1-CD fragments on glutathione beads, anti-IKKγ immunoblot (FIG. 5C)
Excerpt: FIG. 5C is a pair of photographs of immunoblots. […] The precipitates were immunoblotted (IB) with anti-IKKγ antibody. […] The molecular weights of proteins (as indicated on the left of the photographs) are expressed as kilodaltons (kDa).

T1 sequence (Q9Y6K9 whole entry): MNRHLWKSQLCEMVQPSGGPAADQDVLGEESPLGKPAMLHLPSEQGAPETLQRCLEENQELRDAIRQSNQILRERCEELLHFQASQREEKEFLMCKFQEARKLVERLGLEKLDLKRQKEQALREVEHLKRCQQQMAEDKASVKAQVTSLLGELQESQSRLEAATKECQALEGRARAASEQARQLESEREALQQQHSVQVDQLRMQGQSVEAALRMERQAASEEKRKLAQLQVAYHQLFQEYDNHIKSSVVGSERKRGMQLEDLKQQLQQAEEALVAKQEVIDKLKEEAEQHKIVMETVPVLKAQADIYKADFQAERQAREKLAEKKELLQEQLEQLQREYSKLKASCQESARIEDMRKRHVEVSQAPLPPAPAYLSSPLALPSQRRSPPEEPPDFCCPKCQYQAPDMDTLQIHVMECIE

binding result: no binding
B1: GST-MUC1-CD(1-45) (other)
chain: CQCRRKNYGQLDIFPARDTYHPMSEYPTYHTHGRYVPPSSTDRSP
modifications: cysteine pairing not given here; also: GST fusion, GST sequence and linker not given here
notes: not shown: glutathione S-transferase (GST) tag
